This is an account of results in patent US20090143319, “Transcription factor decoy” (AnGesMG, Inc., published 2009).

Holding throughout (details): protein: extract; tags: native, Jurkat nuclear extract (TransAM NF-kB p65 kit, Active Motif)
The target of data set [1] is T1, NF-kB p65 (RelA) (UniProt Q04206 Q04206:1-551). Briefly: competition. The protocol:
(§1) Complete Lysis Buffer, Complete Binding Buffer, 1× Wash Buffer and 1× Antibody Binding Buffer are prepared. […] Jurkat nuclear extract was diluted with Complete Lysis Buffer to a concentration of 125 μg protein/mL.
(§2) To each of the wells in a plate included in the kit, on which a NF-κB-binding nucleic acid is preliminarily immobilized, 30 μL each of the NF-κB Decoy Oligonucleotide Dilution prepared in (1) described above is added. To the wells of the blank and control, 30 μL each of Complete Binding Buffer was added. Then 20 μL each of the above-described Jurkat nuclear extract was added to each well. To each of the wells of the blank and control, 20 μL each of Complete Lysis Buffer was added. After shaking the plate at room temperature for 1 hour, each well was washed with 200 μL of 1× Wash Buffer 3 times, and 100 μL each of rabbit anti-NF-κB p65 antibody 1000-fold diluted with 1× Antibody Binding Buffer was added, followed by shaking the plate at room temperature for 1 hour. Thereafter, each well was washed with 200 μL of 1× Wash Buffer 3 times, and 100 μL each of HRP-labeled anti-rabbit IgG antibody 1000-fold diluted with 1× Antibody Binding Buffer was added to each well, followed by shaking the plate at room temperature for 1 hour. Thereafter, each well was washed with 200 μL each of 1× Wash Buffer 4 times, and 100 μL each of Developing Solution was added, followed by allowing coloring reaction in a dark room for 5 minutes. After the reaction, the coloring reaction was stopped by adding 100 μL each of Stop Solution. […] The percentage of the absorbance of each NF-κB decoy oligonucleotide at each of the concentrations was calculated taking the ratio of absorbances of the well of control as 100, and IC₅₀ of each decoy oligonucleotide was calculated from the approximate curve obtained by plotting the mean values of the above-mentioned percent absorbance.

Data set [2] addresses T1, NF-kB p65 (RelA). Briefly: competition; 0.16 relative to SEQ-X-PS (Table 7). The protocol:
as §1
as §2, with “hour.” for “hour. Thereafter, each well was washed with 200 μL of 1× Wash Buffer 3 times, and 100 μL each of HRP-labeled anti-rabbit IgG antibody 1000-fold diluted with 1× Antibody Binding Buffer was added to each well, followed by shaking the plate at room temperature for 1 hour. Thereafter, each well was washed with 200 μL each of 1× Wash Buffer 4 times, and 100 μL each of Developing Solution was added, followed by allowing coloring reaction in a dark room for 5 minutes. After the reaction, the coloring reaction was stopped by adding 100 μL each of Stop Solution.”

Data set [3] concerns the target T1, NF-kB p65 (RelA). As to the kind of experiment: competition; 0.60 relative to SEQ-X-PS (Table 7). The protocol:
as §1
as §2, with “hour.” for “hour. Thereafter, each well was washed with 200 μL of 1× Wash Buffer 3 times, and 100 μL each of HRP-labeled anti-rabbit IgG antibody 1000-fold diluted with 1× Antibody Binding Buffer was added to each well, followed by shaking the plate at room temperature for 1 hour. Thereafter, each well was washed with 200 μL each of 1× Wash Buffer 4 times, and 100 μL each of Developing Solution was added, followed by allowing coloring reaction in a dark room for 5 minutes. After the reaction, the coloring reaction was stopped by adding 100 μL each of Stop Solution.”

T1 sequence (Q04206 whole entry, one chain of several): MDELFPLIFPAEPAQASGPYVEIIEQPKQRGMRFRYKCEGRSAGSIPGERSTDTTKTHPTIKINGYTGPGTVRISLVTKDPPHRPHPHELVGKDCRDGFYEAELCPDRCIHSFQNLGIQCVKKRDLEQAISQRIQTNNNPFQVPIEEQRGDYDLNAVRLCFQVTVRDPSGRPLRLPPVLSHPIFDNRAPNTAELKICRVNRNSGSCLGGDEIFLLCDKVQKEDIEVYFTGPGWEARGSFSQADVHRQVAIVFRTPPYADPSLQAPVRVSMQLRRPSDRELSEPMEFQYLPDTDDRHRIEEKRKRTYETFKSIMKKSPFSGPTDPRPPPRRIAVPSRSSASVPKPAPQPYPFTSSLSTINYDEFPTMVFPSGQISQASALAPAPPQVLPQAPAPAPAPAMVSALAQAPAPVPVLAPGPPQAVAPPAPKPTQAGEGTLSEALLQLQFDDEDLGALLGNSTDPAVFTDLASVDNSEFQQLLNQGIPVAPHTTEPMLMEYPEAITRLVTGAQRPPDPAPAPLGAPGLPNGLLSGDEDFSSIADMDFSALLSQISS

B1: SEQ-18 (dsDNA)
DNA 1: CTTGAGGGGATTTCCCC
DNA 2: GGGGAAATCCCCTCAAG
For the molecule B1, in data set [1], the binding signal was 0.28 IC50 ratio to SEQ-I.

B2: SEQ-46 (dsDNA)
DNA 1: CCTTGAAGGGACTTTCCTCC
DNA 2: GGAGGAAAGTCCCTTCAAGG
modifications: PS at 2 bonds at each end of both strands
As for B2, the binding signal in data set [1] is > 1.67 IC50 ratio to SEQ-x.

B3: SEQ-47 (dsDNA)
DNA 1: CCTTGAAGGGACTTTCCTCC
DNA 2: GGAGGAAAGTCCCTTCAAGG
modifications: PS (*): C*C*TTGAAGGGACTTTCCT*C*C / 3'-G*G*AAC*T*T*…*G*G
Turning to B3, the binding signal in data set [1] was 0.72 IC50 ratio to SEQ-x.

B4: SEQ-49 (dsDNA)
DNA 1: CCTTGAAGGGACTTTCCTCC
DNA 2: GGAGGAAAGTCCCTTCAAGG
modifications: PS (*): C*C*TTGAAGGGACTTTCCT*C*C / 3'-G*G*…*G*A*AAGGA*G*G
B4: the binding signal in data set [1] was 0.19 IC50 ratio to SEQ-x.

B5: SEQ-48 (dsDNA)
DNA 1: CCTTGAAGGGACTTTCCTCC
DNA 2: GGAGGAAAGTCCCTTCAAGG
modifications: PS (*): C*C*TTGAAGGGACTTTCCT*C*C / 3'-G*G*AACTTCC*C*T*GAAAGGA*G*G
As to B5, the binding signal in data set [1] is 0.2 IC50 ratio to SEQ-x.

B6: SEQ-35 (dsDNA)
DNA 1: GAGGGGATTTCCCC
DNA 2: GGGGAAATCCCCTC
modifications: PS (*): G*A*GGGGATTT*C*CCC / antisense 3'-CTCCC*C*T*AAAG*G*GGG (so in the source)
B6: the binding signal in data set [1] is 0.015 IC50 ratio to SEQ-x.

B7: SEQ-14 (dsDNA)
DNA 1: AGGGGATTTCCCC
DNA 2: GGGGAAATCCCCT
For the molecule B7, the binding signal in data set [1] is 1.39 IC50 ratio to SEQ-I.

B8: SEQ-36 (dsDNA)
DNA 1: TTGAGGGGATTTCCCC
DNA 2: GGGGAAATCCCCTCAA
modifications: PS (*): T*TG*A*GGGGATTT*C*CCC / antisense 5'-G*GGGAAA*T*C*CCCTCAA
As to B8, the binding signal in data set [1] is 0.012 IC50 ratio to SEQ-x.

B9: SEQ-40 (mixed)
DNA: CCTTGAGGGGATTTCCCCCC
mixed: GGGGGGAAATCCCCUCAAGG
modifications: LNA/RNA marked by bold/italic, positions not recoverable from text
Regarding B9, in data set [1], the binding signal was > 2.93 IC50 ratio to SEQ-x.

B10: SEQ-K (dsDNA)
DNA 1: AGTTGAAGGGATTTCCCTAGGC
DNA 2: GCCTAGGGAAATCCCTTCAACT
For B10, in data set [1], the binding signal is > 1.48 IC50 ratio to SEQ-x.

B11: SEQ-45 (dsDNA)
DNA 1: CCTTGAAGGGATTTCCCTCC
DNA 2: GGAGGGAAATCCCTTCAAGG
modifications: PS (*): C*C*TTGAAGGGATTTCCCT*C*C / 3'-G*G*…*A*A*GGGA*G*G
Turning to B11, the binding signal in data set [2] is 1.43 IC50 ratio to SEQ-x.

B12: SEQ-20 (dsDNA)
DNA 1: GGGGATTTCCCCC
DNA 2: GGGGGAAATCCCC
As to B12, in data set [1], the binding signal is > 3.45 IC50 ratio to SEQ-I.

B13: SEQ-19 (dsDNA)
DNA 1: CCTTGAGGGGATTTCCCC
DNA 2: GGGGAAATCCCCTCAAGG
Regarding B13, in data set [1], the binding signal is 0.26 IC50 ratio to SEQ-I.

B14: SEQ-16 (dsDNA)
DNA 1: TGAGGGGATTTCCCC
DNA 2: GGGGAAATCCCCTCA
Turning to B14, in data set [1], the binding signal was 0.42 IC50 ratio to SEQ-I.

B15: SEQ-38 (dsDNA)
DNA 1: TTGAGGGGATTTCCCC
DNA 2: GGGGAAATCCCCTCAA
modifications: PS (*): TTG*A*GGGGATTT*C*CCC / antisense 5'-GGGGAAA*T*C*CCCTCAA
Regarding B15, in data set [1], the binding signal was 0.011 IC50 ratio to SEQ-x.

B16: SEQ-44 (dsDNA)
DNA 1: CCTTGAAGGGATTTCCCTCC
DNA 2: GGAGGGAAATCCCTTCAAGG
modifications: PS (*): C*C*TTGAAGGGATTTCCCT*C*C / 3'-G*G*AA*C*T*…*G*G
In the case of B16, in data set [3], the binding signal was > 1.67 IC50 ratio to SEQ-x.

B17: SEQ-29 (dsDNA)
DNA 1: GAGGGGATTTCCCCCC
DNA 2: GGGGGGAAATCCCCTC
Regarding B17, the binding signal in data set [1] was 2.17 IC50 ratio to SEQ-I.

B18: SEQ-M (dsDNA)
DNA 1: ACCAAGGGATTTCCCTGTCCCAC
DNA 2: GTGGGACAGGGAAATCCCTTGGT
Take B18: in data set [1], the binding signal was > 1.48 IC50 ratio to SEQ-x.

B19: SEQ-25 (dsDNA)
DNA 1: CTTGAGGGGATTTCCCCC
DNA 2: GGGGGAAATCCCCTCAAG
On to B19, for which the binding signal in data set [1] is 0.41 IC50 ratio to SEQ-I.

B20: SEQ-17 (dsDNA)
DNA 1: TTGAGGGGATTTCCCC
DNA 2: GGGGAAATCCCCTCAA
As for B20, the binding signal in data set [1] is 0.3 IC50 ratio to SEQ-I.

B21: SEQ-13 (dsDNA)
DNA 1: GGGGATTTCCCC
DNA 2: GGGGAAATCCCC
As to B21, the binding signal in data set [1] was > 2.87 IC50 ratio to SEQ-I.

B22: SEQ-21 (dsDNA)
DNA 1: AGGGGATTTCCCCC
DNA 2: GGGGGAAATCCCCT
As for B22, the binding signal in data set [1] was 2.07 IC50 ratio to SEQ-I.

B23: SEQ-26 (dsDNA)
DNA 1: CCTTGAGGGGATTTCCCCC
DNA 2: GGGGGAAATCCCCTCAAGG
Turning to B23, in data set [1], the binding signal is 0.43 IC50 ratio to SEQ-I.

B24: SEQ-30 (dsDNA)
DNA 1: TGAGGGGATTTCCCCCC
DNA 2: GGGGGGAAATCCCCTCA
As to B24, in data set [1], the binding signal was 1.24 IC50 ratio to SEQ-I.

B25: SEQ-33 (dsDNA)
DNA 1: GAGGGGATTTCCCC
DNA 2: GGGGAAATCCCCTC
modifications: PS (*): G*A*GGGGATTT*C*CCC / antisense 5'-GGGGAAA*T*C*CCCTC
Consider B25, for which, in data set [1], the binding signal was 0.021 IC50 ratio to SEQ-x.

B26: SEQ-24 (dsDNA)
DNA 1: TTGAGGGGATTTCCCCC
DNA 2: GGGGGAAATCCCCTCAA
Turning to B26, the binding signal in data set [1] is 0.52 IC50 ratio to SEQ-I.

B27: SEQ-34 (dsDNA)
DNA 1: GAGGGGATTTCCCC
DNA 2: GGGGAAATCCCCTC
modifications: PS (*): G*A*GGGGATTT*C*CCC / antisense 5'-G*GGGAAA*T*C*CCCTC
B27: in data set [1], the binding signal was 0.014 IC50 ratio to SEQ-x.

B28: SEQ-32 (dsDNA)
DNA 1: CTTGAGGGGATTTCCCCCC
DNA 2: GGGGGGAAATCCCCTCAAG
In the case of B28, in data set [1], the binding signal was 0.76 IC50 ratio to SEQ-I.

B29: SEQ-15 (dsDNA)
DNA 1: GAGGGGATTTCCCC
DNA 2: GGGGAAATCCCCTC
Regarding B29, the binding signal in data set [1] is 0.61 IC50 ratio to SEQ-I.

B30: SEQ-23 (dsDNA)
DNA 1: TGAGGGGATTTCCCCC
DNA 2: GGGGGAAATCCCCTCA
B30: the binding signal in data set [1] was 0.69 IC50 ratio to SEQ-I.

B31: SEQ-31 (dsDNA)
DNA 1: TTGAGGGGATTTCCCCCC
DNA 2: GGGGGGAAATCCCCTCAA
B31: the binding signal in data set [1] was 0.84 IC50 ratio to SEQ-I.

B32: SEQ-28 (dsDNA)
DNA 1: AGGGGATTTCCCCCC
DNA 2: GGGGGGAAATCCCCT
Turning to B32, in data set [1], the binding signal is > 2.2 IC50 ratio to SEQ-I.

B33: SEQ-9 (dsDNA)
DNA 1: CCTTGAGGGGATTTCCCCCC
DNA 2: GGGGGGAAATCCCCTCAAGG
modifications: PS (*): C*C*TTG*A*GGGGATTT*C*CCCCC / antisense 5'-G*G*GGGGAAA*T*C*CCCTCAAGG
Take B33: in data set [1], the binding signal was 0.02 IC50 ratio to SEQ-x.

B34: SEQ-22 (dsDNA)
DNA 1: GAGGGGATTTCCCCC
DNA 2: GGGGGAAATCCCCTC
For B34, in data set [1], the binding signal was 1.09 IC50 ratio to SEQ-I.

B35: SEQ-37 (dsDNA)
DNA 1: TTGAGGGGATTTCCCC
DNA 2: GGGGAAATCCCCTCAA
modifications: PS (*): T*T*G*A*GGGGATTT*C*CCC / antisense 5'-G*G*GGAAA*T*C*CCCTCAA
For B35, in data set [1], the binding signal is 0.015 IC50 ratio to SEQ-x.

B36: SEQ-27 (dsDNA)
DNA 1: GGGGATTTCCCCCC
DNA 2: GGGGGGAAATCCCC
As for B36, the binding signal in data set [1] is > 2.2 IC50 ratio to SEQ-I.

B37: SEQ-L (dsDNA)
DNA 1: CCTTGAGGGGACTTTCCCCC
DNA 2: GGGGGAAAGTCCCCTCAAGG
On to B37, for which the binding signal in data set [1] was 0.66 IC50 ratio to SEQ-x.
